Assay results reported in paper PMC10015101.

Tests used:
Test in all cases: SEC
[1] = target: BM48-31 soluble spike ectodomain, stabilised (2P, GSAS linker, T4 fibritin trimerization motif) (bat sarbecovirus BM48-31 | bacteriophage T4)
[2] = target: BtKY72 soluble spike ectodomain, stabilised (2P, GSAS linker, T4 fibritin trimerization motif) (bat sarbecovirus BtKY72 | bacteriophage T4)
[3] = target: Pang17 soluble spike ectodomain, stabilised (2P, GSAS linker, T4 fibritin trimerization motif) (pangolin sarbecovirus pang17 | bacteriophage T4)
[4] = target: RaTG13 soluble spike ectodomain, stabilised (2P, GSAS linker, T4 fibritin trimerization motif) (bat sarbecovirus RaTG13 | bacteriophage T4)
[5] = target: RmYN02 soluble spike ectodomain, stabilised (2P, GSAS linker, T4 fibritin trimerization motif) (bat sarbecovirus RmYN02 | bacteriophage T4)
[6] = target: Rs4081 soluble spike ectodomain, stabilised (2P, GSAS linker, T4 fibritin trimerization motif) (bat sarbecovirus RS4081 | bacteriophage T4)
[7] = target: RsSHC014 soluble spike ectodomain, stabilised (2P, GSAS linker, T4 fibritin trimerization motif) (bat sarbecovirus RsSHC014 | bacteriophage T4) (UniProt U5WLK5)
[8] = target: WIV1 soluble spike ectodomain, stabilised (2P, GSAS linker, T4 fibritin trimerization motif) (bat sarbecovirus WIV1 | bacteriophage T4) (UniProt U5WI05)
[9] = target: Yun11 soluble spike ectodomain, stabilised (2P, GSAS linker, T4 fibritin trimerization motif) (sarbecovirus Yun11 | bacteriophage T4)

Q: Which stoichiometry N [1] does the source give for “BM48-31 soluble spike ectodomain, stabilised (2P, GSAS linker, T4 fibritin trimerization motif) (domain or fragment)” here?
A: The stoichiometry N was 3.

Q: “BtKY72 soluble spike ectodomain, stabilised (2P, GSAS linker, T4 fibritin trimerization motif) (domain or fragment)” was tested. Which stoichiometry N [2] did it give?
A: Its stoichiometry N is 3.

Q: With “Pang17 soluble spike ectodomain, stabilised (2P, GSAS linker, T4 fibritin trimerization motif) (domain or fragment)” as the substance, how does the stoichiometry N [3] read?
A: Its stoichiometry N is 3.

Q: Which stoichiometry N [4] does the source give for “RaTG13 soluble spike ectodomain, stabilised (2P, GSAS linker, T4 fibritin trimerization motif) (domain or fragment)” here?
A: The stoichiometry N was 3.

Q: For “RmYN02 soluble spike ectodomain, stabilised (2P, GSAS linker, T4 fibritin trimerization motif) (domain or fragment)”, which stoichiometry N [5] is on record?
A: The stoichiometry N was 3.

Q: For “Rs4081 soluble spike ectodomain, stabilised (2P, GSAS linker, T4 fibritin trimerization motif) (domain or fragment)”, which stoichiometry N [6] is on record?
A: Its stoichiometry N is 3.

Q: With “RsSHC014 soluble spike ectodomain, stabilised (2P, GSAS linker, T4 fibritin trimerization motif) (from UniProt U5WLK5 1-1191) (domain or fragment)” as the substance, how does the stoichiometry N [7] read?
A: Its stoichiometry N is 3.

Q: Which stoichiometry N [8] does the source give for “WIV1 soluble spike ectodomain, stabilised (2P, GSAS linker, T4 fibritin trimerization motif) (from UniProt U5WI05 1-1191) (domain or fragment)” here?
A: Its stoichiometry N is 3.

Q: Which stoichiometry N [9] does the source give for “Yun11 soluble spike ectodomain, stabilised (2P, GSAS linker, T4 fibritin trimerization motif) (domain or fragment)” here?
A: The stoichiometry N was 3.
